Experimental data published in patent US20240335558A1, “ISOLATED POLYPEPTIDE AND USE THEREOF” (GLYCO-THERAPY BIOTECHNOLOGY CO., LTD., priority 2021, published 2024).

Experiments:
Type in all cases: biochemical
[1] = test system: Durvalumab-(GalNAzβ1,4)GlcNAc; experiment: HpFT-2HR and HpFT-4HR transferring GDP-FAmSucMMAE to Durvalumab-(GalNAzβ1,4)GlcNAc; conditions: donor 1 mM, enzyme 0.5 mg/mL, 30° C., 3 h and 6 h; FIG. 8B
Experimental: (§1) To 40 mM Tris-HCl (pH 7.5) buffer were added Trastuzumab-(Fucα1,6)(Galβ1,4)GlcNAc (2 mg/mL final), GDP-FAmP4Biotin (1 mM final), MgCl2 (20 mM final), and different HpFT enzymes (HpFT-4HR, HpFT-4HR(M4), HpFT-4HR(M7), HpFT-6HR, HpFT-3HR, HpFT-2HR, HpFT-1HR or HpFT-0HR) (0.5 mg/mL final) in sequence, and the resulting mixed solution was allowed to react at 30° C. for 1 h. Three parallels were set up for each group. After the reaction time point was reached, to the reaction solution was added 10 mM LacNA, and the reaction was terminated by a desalting column (Zeba™ Spin Desalting Columns/2 ml/40K, Thermo Fisher Scientific), and finally mass spectrometry was carried out and % of conversion was calculated. % of conversion=(MAR0 peak intensity*0+MAR1peak intensity*1+MAR2 peak intensity*2)/2* (MAR0 peak intensity+MAR1 peak intensity+MAR2 peak intensity)*100%.
(§2) To 40 mM Tris-HCl (pH 7.5) buffer were added Trastuzumab-(GalNAzβ1,4)GlcNAc or Durvalumab-(GalNAzβ1,4)GlcNAc (2 mg/mL final), GDP-FAmSucMMAE (1 mM final), MgCl2 (20 mM final), and HpFT-2HR or HpFT-4HR (0.5 mg/mL final) in sequence, and the resulting mixed solution was allowed to react at 30° C. for 3 h and 6 h. Three parallels were set up for each group. […]

[2] = test system: Trastuzumab-(GalNAzβ1,4)GlcNAc; experiment: HpFT-2HR and HpFT-4HR transferring GDP-FAmSucMMAE to Trastuzumab-(GalNAzβ1,4)GlcNAc; conditions: donor 1 mM, enzyme 0.5 mg/mL, 30° C., 3 h and 6 h; FIG. 8A
Experimental: as §1, §2

[3] = test system: Trastuzumab-(Fucα1,6)(Galβ1,4)GlcNAc; experiment: Transfer of GDP-FAmP4Biotin to Trastuzumab-(Fucα1,6)(Galβ1,4)GlcNAc by different HpFTs; conditions: donor GDP-FAmP4Biotin 1 mM, enzyme 0.5 mg/mL, 30° C., 1 h; FIG. 2
Experimental: as §1

[4] = test system: Trastuzumab-(Galβ1,4)GlcNAc; experiment: HpFT-2HR and HpFT-4HR transferring GDP-FAmSucMMAE to Trastuzumab-(Galβ1,4)GlcNAc; conditions: donor 1 mM, enzyme 0.5 mg/mL, 30° C., 1 h and 2 h; FIG. 9
Experimental: as §1
To 40 mM Tris-HCl (pH 7.5) buffer were added Trastuzumab-(Galβ1,4)GlcNAc (2 mg/mL final), GDP-FAmSucMMAE (1 mM final), MgCl2 (20 mM final), and HpFT-2HR or HpFT-4HR (0.5 mg/mL final) in sequence, and the resulting mixed solution was allowed to react at 30° C. for 1 h and 2 h. Three parallels were set up for each group. […]

Trastuzumab-G2F [5] = experiment: Transfer of GDP-FAmP4Biotin to Trastuzumab-G2F by different HpFTs (% of conversion by MS); conditions: donor GDP-FAmP4Biotin 1 mM, enzyme 0.5 mg/mL, 30° C., 3 h; FIG. 1
Experimental: (§3) To 40 mM Tris-HCl (pH 7.5) buffer were added Trastuzumab-G2F (2 mg/mL final), GDP-FAmP4Biotin (1 mM final), MgCl2 (20 mM final), and different HpFT enzymes (HpFT-4HR, HpFT-4HR(M4), HpFT-4HR(M7), HpFT-6HR, HpFT-3HR, HpFT-2HR, HpFT-1HR, or HpFT-0HR) (0.5 mg/mL final) in sequence, and the resulting mixed solution was allowed to react at 30° C. for 3 h. Three parallels were set up for each group. After the reaction time point was reached, to the reaction solution was added 10 mM LacNAc (N-acetyl-D-lactosamine), and the reaction was terminated by a desalting column (Zeba™ Spin Desalting Columns/2 ml/40K, Thermo Fisher Scientific), and finally mass spectrometry was carried out and % of conversion was calculated. % of conversion=(MAR0 peak intensity*0+MAR1peak intensity*1+MAR2 peak intensity*2+MAR3 peak intensity*3+MAR4 peak intensity*4)/4* (MAR0 peak intensity+MAR1 peak intensity+MAR2 peak intensity+MAR3 peak intensity+MAR4 peak intensity)*100%.

Trastuzumab-G2F [6] = experiment: HpFT-2HR and HpFT-4HR transferring GDP-FAmP4Biotin or GDP-FAzP4Biotin to Trastuzumab-G2F; conditions: enzyme 0.5 mg/mL, 30° C., 6 h, FIG. 6(A)
Experimental: as §3
To 40 mM Tris-HCl (pH 7.5) buffer were added Trastuzumab-G2F (2 mg/mL final), GDP-FAmP4Biotin or GDP-FAzP4Biotin (1 mM final), MgCl2 (20 mM final), and HpFT-2HR or HpFT-4HR (0.5 mg/mL final) in sequence, and the resulting mixed solution was allowed to react at 30° C. for 6 h. Three parallels were set up for each group. After the reaction time point was reached, to the reaction solution was added 10 mM LacNAc, and the reaction was terminated by a desalting column (Zeba™ Spin Desalting Columns/2 ml/40K, Thermo Fisher Scientific), and finally mass spectrometry was carried out and % of conversion was calculated. % of conversion was calculated according to Example 17.

Trastuzumab-G2F [7] = experiment: HpFT-2HR and HpFT-4HR transferring GDP-FAmSucMMAE to Trastuzumab-G2F; conditions: donor 1 mM, enzyme 0.5 mg/mL, 30° C., 3 h and 6 h; FIG. 7A
Experimental: as §3
To 40 mM Tris-HCl (pH 7.5) buffer were added Trastuzumab-G2F or Durvalumab-G2F (2 mg/mL final), GDP-FAmSucMMAE (1 mM final), MgCl2 (20 mM final), and HpFT-2HR or HpFT-4HR (0.5 mg/mL final) in sequence, and the resulting mixed solution was allowed to react at 30° C. for 3 h and 6 h. Three parallels were set up for each group. […]

[8] = test system: Trastuzumab-(Fucα1,6)(GalNAzβ1,4)GlcNAc; experiment: Transfer of GDP-FAmP4Biotin to Trastuzumab-(Fucα1,6)(GalNAzβ1,4)GlcNAc by different HpFTs; conditions: donor GDP-FAmP4Biotin 1 mM, enzyme 0.5 mg/mL, 30° C., 3 h; FIG. 3

B1: HpFT-2HR: H. pylori α-1,3-fucosyltransferase variant: catalytically active domain, two heptapeptide repeat sequences and C-terminus fused His tag (protein)
chain: MFQPLLDAFIESASIEKMVSKSPPPPLKIAVANWWGDEEIKEFKKSVLYFILSQRYAITLHQNPNESSDLVFSNPLGAARKILSYQNTKRVFYTGENESPNFNLFDYAIGFDELDFNDRYLRMPLYYAHLHYEAELVNDTTAPYKLKDNSLYALKKPSHHFKENHPNLCAVVNDESDLLKRGFASFVASNANAPMRNAFYDALNSIEPVTGGGSVRNTLGYKVGNKSEFLSQYKFNLCFENSQGYGYVTEKILDAYFSHTIPIYWGSPSVAKDFNPKSFVNVHDFNNFDEAIDYIKYLHTHPNAYLDMLYENPLNTLDGKAYFYQDLSFKKILDFFKTILENDTIYHNNPFIFYRDLHEPLISIDDLRVNYDDLRVNYLEHHHHHH
modifications: Catalytically active domain of Helicobacter pylori Alpha-(1,3)-fucosyltransferase (GenBank No.AAD07710.1) with 2 heptapeptide repeats and a C-terminal His tag
[1]
  activity in catalyzing the transfer of GDP-FAmSucMMAE, as compared with HpFT-4HR: significantly improved activity
[2]
  activity in catalyzing the transfer of GDP-FAmSucMMAE, as compared with HpFT-4HR: significantly improved activity
[3]
  catalytic activity as compared with HpFT-4HR (% of conversion): significantly improved catalytic activity
[4]
  activity in catalyzing the transfer of GDP-FAmSucMMAE, as compared with HpFT-4HR: significantly improved activity
Trastuzumab-G2F [5]
  catalytic activity among the HpFT variants: highest catalytic activity
  catalytic activity as compared with HpFT-4HR (% of conversion): significantly improved catalytic activity
Trastuzumab-G2F [6]; donor 1 mM
  activity in catalyzing the transfer of GDP-FAmP4Biotin relative to transfer of GDP-FAzP4Biotin: significantly higher
Trastuzumab-G2F [6]; donor GDP-FAmP4Biotin 1 mM
  activity in catalyzing the transfer of GDP-FAmP4Biotin, as compared with HpFT-4HR: significantly improved activity
Trastuzumab-G2F [6]; donor GDP-FAzP4Biotin 1 mM
  activity in catalyzing the transfer of GDP-FAzP4Biotin, as compared with HpFT-4HR: significantly improved activity
Trastuzumab-G2F [7]
  activity in catalyzing the transfer of GDP-FAmSucMMAE, as compared with HpFT-4HR: significantly improved activity
[8]
  catalytic activity among the HpFT variants: relatively high catalytic activity
  catalytic activity as compared with HpFT-4HR (% of conversion): significantly improved catalytic activity
